Experiment [1] has as its target T1, B11 protein (humanized B11 VHH as ELISA antigen).
T1 construct: Panning used B11-Fc; the ELISA legend says only 'B11 protein'
In words: periplasmic extract ELISA, absorbance 450 nm, single point.

For experiment [2], the target named is T2, humanized B11 VHH CAR (hyLYSO_CW_P01_B11) on Nurkat cells.
T2 construct: also called B11 (p1649); P1649
In words: flow cytometry, VHH-Fc on CAR Nurkat cells, 3-fold dilutions 50 to 0.02 nM, anti-Fc APC, %Fc positive cells. From the text: (§1) […] Fc-fusion protein was detected via anti-Fc APC, and the percentage of cells that were positive for this detection method are shown. […] Controls include (i) no VHH-Fc added and (ii) the anti-VHH cocktail detection reagent (far right). The samples shown in the graphs for each protein appear in the order as specified in the legend.

Experiment [3] deals with T3, B11-his tagged VHH (humanized B11).
T3 construct: also called B11-his protein; B11 his-tagged protein
In words: Octet (BLI), anti-idiotype VHH-Fc vs his-tagged VHH; table title prints D04-his, its footnote prints B11-his.

Experiment [4] concerns the target T4, D04 protein (humanized D04 VHH as ELISA antigen).
T4 construct: Panning used biotinylated D04-Fc; the ELISA legend says only 'D04 protein'
Briefly: periplasmic extract ELISA, absorbance 450 nm, single point. In general terms: ELISA stands for enzyme-linked immunosorbent assay.

For experiment [5], the target named is T5, humanized D04 VHH CAR (hyLYSO_CW_P01_D04) on Nurkat cells or primary T cells.
T5 construct: also called D04 (p1648); P1650
In words: flow cytometry, VHH-Fc on CAR Nurkat cells, 3-fold dilutions 50 to 0.02 nM, anti-Fc APC, %Fc positive cells.
Excerpt: as §1
On the technique in general: A flow cytometer gives signals particle by particle.

The target in experiment [6] is T6, D04-his tagged VHH (humanized D04).
T6 construct: also called LysoD04.His; D04 his-tagged protein
Briefly: Octet (BLI), anti-idiotype VHH-Fc vs his-tagged VHH; table title prints B11-his, paragraph 353 ties these values to D04.

Residue numbers refer to the chain shown, from its start.

For orientation: EC50 (read off the curve) means the midpoint of the concentration-response curve. The term Kd denotes the free concentration of one partner at which half of the binding sites on the other are occupied at equilibrium, for simple one-to-one binding. The koff is the rate constant with which the complex falls apart. Low readings indicate slow dissociation, high ones fast dissociation. A word on the kon: it is the rate constant with which the complex forms. Higher therefore signals faster complex formation.

B1: huD04_CNTY2_C03 anti-idiotype VHH (periplasmic extract) (VHH)
VHH: EVQLLESGGGLVQPGGSLRLSCAASGLTFSRYAMGWYRQAPGKERELVSAISSRRSTYYADSVKGRFTISRDNSKNTLYLQMNSLRAEDTAVYYCAADYRLTSLERARYASASITYDYWGQGTQVTVSS
notes: Screened as periplasmic extract; also called VHH of AMD78
As to B1, in experiment [1], the binding result is recorded as “no binding”.

B2: AMD87 (huD04_CNTY1_D11 anti-idiotype VHH IgG1-Fc fusion) (Fc fusion)
chain: EVQLLESGGGLVQPGGSLRLSCAASGSTFSYYYMGWYRQAPGKERELVSAISSGGSIYYADSVKGRFTISRDNSKNTLYLQMNSLRAEDTAVYYCARRTYYGDEADYWGQGTQVTVSS
notes: not shown: IgG1 Fc
For the molecule B2, in experiment [2], the binding result is given as “no binding (tested: 50 nM)”. This molecule also gave a Response in experiment [3] of -0.0301.

B3: huD04_CNTY2_F12 anti-idiotype VHH (periplasmic extract) (VHH)
VHH: EVQLLESGGGLVQPGGSLRLSCAASGFTFSSNAMGWYRQAPGKEREFVSSISSGRSTTYADSVKGRFTISRDNSKNTLYLQMNSLRAEDTAVYYCAAHGTKYKWTRARLRSARQKQLETYRYWGQGTQVTVSS
notes: Screened as periplasmic extract; also called VHH of AMD74
For the molecule B3, the binding result in experiment [4] is reported as “binds”.

B4: AMD74 (huD04_CNTY2_F12 anti-idiotype VHH IgG1-Fc fusion) (Fc fusion)
chain: B3 VHH
notes: not shown: IgG1 Fc
Take B4: the binding result in experiment [5] is “binds”.

B5: huD04_CNTY2_F04 anti-idiotype VHH (periplasmic extract) (VHH)
VHH: EVQLLESGGGLVQPGGSLRLSCAASGRTFSSYGMGWYRQAPGKERELVSAISNRGSTYYADSVKGRFTISRDNSKNTLYLQMNSLRAEDTAVYYCAASPARVGVSGHSSSRRSYYGYSYDYWGQGTQVTVSS
notes: Screened as periplasmic extract; also called VHH of AMD70
Consider B5, for which the binding result in experiment [4] is reported as “binds”.

B6: AMD70 (Fc fusion)
VHH-Fc: B5 VHH
notes: also called huD04_CNTY2_F04 anti-idiotype VHH IgG1-Fc fusion
Regarding B6, in experiment [5], the binding result was “binds”.

B7: AMD69 (huD04_CNTY2_E03 anti-idiotype VHH IgG1-Fc fusion) (Fc fusion)
chain: EVQLLESGGGLVQPGGSLRLSCAASGLTYTGYAMGWYRQAPGKERELVSAISSRSSIYYADSVKGRFTISRDNSKNTLYLQMNSLRAEDTAVYYCAAGRPVALGSWRRTATWSAGLGAEYAYWGQGTQVTVSS
notes: not shown: IgG1 Fc
As for B7, the “EC50 (read off the curve)” value in experiment [5] is roughly 4 nM. The binding result in experiment [2] is given as “no binding (tested: 50 nM)”.

B8: huD04_CNTY2_E03 anti-idiotype VHH (periplasmic extract) (VHH)
VHH: B7 chain
notes: Screened as periplasmic extract; also called VHH of AMD69
Regarding B8, in experiment [1], the binding result is recorded as “no binding”.

B9: AMD71 (huB11_CNTY3+4_A02 anti-idiotype VHH IgG1-Fc fusion) (Fc fusion)
chain: EVQLLESGGGLVQPGGSLRLSCAASGRTYTGSAMGWYRQAPGKERELVSAISTGGETYYADSVKGRFTISRDNSKNTLYLQMNSLRAEDTAVYYCAAGYVGLPYTYRPATSRRGYTYWGQGTQVTVSS
notes: not shown: IgG1 Fc
B9: the binding result in experiment [5] was “no binding (tested: 50 nM)”. In experiment [3], this molecule came in with a Kd of 515 nM, a Response of 0.0566, a koff of 0.14 s⁻¹ and a kon of 273000 M⁻¹ s⁻¹.

B10: huD04_CNTY2_H12 anti-idiotype VHH (periplasmic extract) (VHH)
VHH: EVQLLESGGGLVQPGGSLRLSCAASGSIFSSDVMGWYRQAPGKERELVSAISSGGSTRYADSVKGRFTISRDNSKNTLYLQMNSLRAEDTAVYYCAATMGKSKTNRRNYGTWRYGAYAYWGQGTQVTVSS
notes: Screened as periplasmic extract; also called VHH of ABD72 (AMD72)
As for B10, the binding result in experiment [4] is reported as “binds”.

B11: AMD72 (huD04_CNTY2_H12 anti-idiotype VHH IgG1-Fc fusion) (Fc fusion)
chain: B10 VHH
notes: also called ABD72; not shown: IgG1 Fc
Take B11: in experiment [5], the binding result is given as “binds”.

B12: AMD67 (Fc fusion)
VHH-Fc: EVQLLESGGGLVQPGGSLRLSCAASGRTFSSGAMGWYRQAPGKERELVSAISNRGSTVYADSVKGRFTISRDNSKNTLYLQMNSLRAEDTAVYYCAADRNPSSAGAGVAAYRLIARFNYWGQGTQVTVSS
notes: also called huD04_CNTY2_F09 anti-idiotype VHH IgG1-Fc fusion
Take B12: the binding result in experiment [2] is recorded as “no binding (tested: 50 nM)”.

B13: huD04_CNTY2_D04 anti-idiotype VHH (periplasmic extract) (VHH)
VHH: EVQLLESGGGLVQPGGSLRLSCAASGLTFSGVCMGWFRQAPGKEREGVSAIYSSGSTYYADSVKGRFTISRDNSKNTLYLQMNSLRAEDTAVYYCAADRIPDLGEPCIGTTNLARTYNYWGQGTQVTVSS
notes: Screened as periplasmic extract; also called VHH of AMD81
As for B13, in experiment [1], the binding result is on record as “no binding”.

B14: AMD81 (Fc fusion)
VHH-Fc: B13 VHH
notes: also called huD04_CNTY2_D04 anti-idiotype VHH IgG1-Fc fusion
As for B14, the binding result in experiment [2] is “no binding (tested: 50 nM)”.

B15: AMD75 (Fc fusion)
VHH-Fc: EVQLLESGGGLVQPGGSLRLSCAASGFAFSDYVMGWYRQAPGKEREFVSAIRSTTSTYYADSVKGRFTISRDNSKNTLYLQMNSLRAEDTAVYYCAADVWSGYEYDYWGQGTQVTVSS
notes: also called huB11_CNTY1_E11 anti-idiotype VHH IgG1-Fc fusion
Regarding B15, the binding result in experiment [5] is reported as “no binding (tested: 50 nM)”.

B16: AMD76 (Fc fusion)
VHH-Fc: B15 VHH-Fc with F27L, D31S, V33A, A50V, R52S, S53G, T55G, S56E, Y58L
notes: also called huB11_CNTY1_B11 anti-idiotype VHH IgG1-Fc fusion
As for B16, the binding result in experiment [5] is recorded as “no binding (tested: 50 nM)”.

B17: huD04_CNTY2_B06 anti-idiotype VHH (periplasmic extract) (VHH)
VHH: EVQLLESGGGLVQPGGSLRLSCAASGFTFNRYSMGWYRQAPGKERELVSAISSGGSGYYADSVKGRFTISRDNSKNTLYLQMNSLRAEDTAVYYCAIQDYSRIWEYIALDRRRSYYGMDYWGQGTQVTVSS
notes: Screened as periplasmic extract; also called VHH of AMD79
In the case of B17, the binding result in experiment [1] was “no binding”.

B18: AMD79 (Fc fusion)
VHH-Fc: B17 VHH
notes: also called huD04_CNTY2_B06 anti-idiotype VHH IgG1-Fc fusion
As to B18, in experiment [2], the binding result is “no binding (tested: 50 nM)”.

B19: AMD82 (huD04_CNTY1_B12 anti-idiotype VHH IgG1-Fc fusion) (Fc fusion)
chain: EVQLLESGGGLVQPGGSLRLSCAASGRTSSNYVMGWYRQAPGKEREGVSAITSGGSTYYADSVKGRFTISRDNSKNTLYLQMNSLRAEDTAVYYCAANLYSRTGAYDYWGQGTQVTVSS
notes: not shown: IgG1 Fc
On to B19, for which the “EC50 (read off the curve)” value in experiment [5] was roughly 6 nM. In addition, the binding result in experiment [2] was “no binding (tested: 50 nM)”. The molecule also showed a Response in experiment [3] of -0.0225. For the same molecule, in experiment [6], binding was put at a Kd of 125 nM, the Response worked out at 0.172, the koff amounted to 0.0868 s⁻¹ and the on-rate constant (kon) stood at 697000 M⁻¹ s⁻¹.

B20: AMD73 (Fc fusion)
VHH-Fc: EVQLLESGGGLVQPGGSLRLSCAASGFTFSSYSIGWYRQAPGKERELVSVISSGGSTYYADSVKGRFTISRDNSKNTLYLQMNSLRAEDTAVYYCAASDWSYSWITYTGTWRLYEYWGQGTQVTVSS
notes: also called huB11_CNTY3+4_A01 anti-idiotype VHH IgG1-Fc fusion
Consider B20, for which the binding result in experiment [5] is on record as “no binding (tested: 50 nM)”.

The values are drawn from patent US20220193133A1 (CENTURY THERAPEUTICS, published 2022).
